Target: SUMO2-KG-TAMRA (human, UniProt P61956 1-95, C-terminal glycine linked by an isopeptide bond to the lysine side chain of the KG-TAMRA peptide)
Assay: cell-based or functional assay

Sequence of SUMO2-KG-TAMRA (P61956 whole entry): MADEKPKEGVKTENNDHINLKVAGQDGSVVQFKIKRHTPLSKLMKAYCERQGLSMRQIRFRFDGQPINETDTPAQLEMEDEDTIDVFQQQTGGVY

B1: USPL1 catalytic domain (enzyme, human, UniProt Q5W0Q7 227-500, looked up)
chain: VQWKNAYALCWLDCILSALVHSEELKNTVTGLCSKEESIFWRLLTKYNQANTLLYTSQLSGVKDGDCKKLTSEIFAEIETCLNEVRDEIFISLQPQLRCTLGDMESPVFAFPLLLKLETHIEKLFLYSFSWDFECSQCGHQYQNRHMKSLVTFTNVIPEWHPLNAAHFGPCNNCNSKSQIRKMVLEKVSPIFMLHFVEGLPQNDLQHYAFHFEGCLYQITSVIQYRANNHFITWILDADGSWLECDDLKGPCSERHKKFEVPASEIHIVIWERK
**Q.** With B1 as the binder, how does the “catalytic efficiency in the fluorescence-polarization cleavage assay, SUMO2-KG-TAMRA against SUMO1-KG-TAMRA” value read?
**A.** ~25 fold
